The source of these data is publication PMC2782394.

This series concerns the target T1, ROS3 (Arabidopsis thaliana, UniProt Q9FGT1 1-748).
T1 sequence: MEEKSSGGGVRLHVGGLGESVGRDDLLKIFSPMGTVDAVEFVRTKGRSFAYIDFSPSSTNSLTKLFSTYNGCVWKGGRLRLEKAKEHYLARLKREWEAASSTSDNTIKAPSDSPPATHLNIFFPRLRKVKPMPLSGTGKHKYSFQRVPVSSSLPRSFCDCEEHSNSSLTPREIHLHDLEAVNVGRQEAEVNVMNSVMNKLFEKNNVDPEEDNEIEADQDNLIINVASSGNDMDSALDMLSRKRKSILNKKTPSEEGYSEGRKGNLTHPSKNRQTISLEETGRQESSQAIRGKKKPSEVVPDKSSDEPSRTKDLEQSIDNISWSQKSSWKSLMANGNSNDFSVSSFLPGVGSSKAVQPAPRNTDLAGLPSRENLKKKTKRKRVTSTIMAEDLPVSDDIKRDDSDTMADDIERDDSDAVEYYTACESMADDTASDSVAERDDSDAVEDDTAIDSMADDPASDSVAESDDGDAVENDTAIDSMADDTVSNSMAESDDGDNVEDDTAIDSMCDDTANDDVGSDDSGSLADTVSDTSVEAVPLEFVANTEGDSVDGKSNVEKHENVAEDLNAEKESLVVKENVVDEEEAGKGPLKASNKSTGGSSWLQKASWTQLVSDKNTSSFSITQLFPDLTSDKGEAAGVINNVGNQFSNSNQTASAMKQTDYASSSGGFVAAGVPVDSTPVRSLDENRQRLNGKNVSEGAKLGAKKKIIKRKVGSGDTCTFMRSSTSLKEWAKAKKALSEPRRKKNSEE
Put plainly: EMSA. Background: Mobility shift assays separate free from complexed probe on a gel.

B1: RNA (c) 25-nt (ssRNA)
RNA: GGGAGUCCGGAGACGUCGGCGGGGG
Consider B1, for which the binding result is reported as “binds”.

B2: RNA (d) 25-nt (ssRNA)
RNA: UCGGGAGGGAAGCGGAUGGGGGCCG
For the molecule B2, the binding result is listed as “binds”.
